Laboratory results taken from PMC9378516 (Journal of molecular biology, 2022).

Biological target: the molecule itself
Experiment: AUC

B1: TRF2 (hTERF2), full-length construct, residues 5-542 (natural protein, human, UniProt Q15554-3 5-542, looked up)
chain: AGTAGPASGPGVVRDPAASQPRKRPGREGGEGARRSDTMAGGGGSSDGSGRAAGRRASRSSGRARRGRHEPGLGGPAERGAGEARLEEAVNRWVLKFYFHEALRAFRGSRYGDFRQIRDIMQALLVRPLGKEHTVSRLLRVMQCLSRIEEGENLDCSFDMEAELTPLESAINVLEMIKTEFTLTEAVVESSRKLVKEAAVIICIKNKEFEKASKILKKHMSKDPTTQKLRNDLLNIIREKNLAHPVIQNFSYETFQQKMLRFLESHLDDAEPYLLTMAKKALKSESAASSTGKEDKQPAPGPVEKPPREPARQLRNPPTTIGMMTLKAAFKTLSGAQDSEAAFAKLDQKDLVLPTQALPASPALKNKRPRKDENESSAPADGEGGSELQPKNKRMTISRLVLEEDSQSTEPSAGLNSSQEAASAPPSKPTVLNQPLPGEKNPKVPKGKWNSSNGVEEKETWVEEDELFQVQAAPDEDSTTNITKKQKWTVEESEWVKAGVQKYGEGNWAAISKNYPFVNRTAVMIKDRWRTMKRLGMN
stoichiometry N: 2
